The values that follow come from patent US20110142830A1.

The experiment addresses sSortilin, Q99523. As to the kind of experiment: SPR. The note with it: modification not given.

For orientation: EC50 means the concentration giving half of the maximal effect. Low values mean higher potency in that assay, high ones lower potency in that assay.

sSortilin, Q99523, sequence (Q99523 78-755): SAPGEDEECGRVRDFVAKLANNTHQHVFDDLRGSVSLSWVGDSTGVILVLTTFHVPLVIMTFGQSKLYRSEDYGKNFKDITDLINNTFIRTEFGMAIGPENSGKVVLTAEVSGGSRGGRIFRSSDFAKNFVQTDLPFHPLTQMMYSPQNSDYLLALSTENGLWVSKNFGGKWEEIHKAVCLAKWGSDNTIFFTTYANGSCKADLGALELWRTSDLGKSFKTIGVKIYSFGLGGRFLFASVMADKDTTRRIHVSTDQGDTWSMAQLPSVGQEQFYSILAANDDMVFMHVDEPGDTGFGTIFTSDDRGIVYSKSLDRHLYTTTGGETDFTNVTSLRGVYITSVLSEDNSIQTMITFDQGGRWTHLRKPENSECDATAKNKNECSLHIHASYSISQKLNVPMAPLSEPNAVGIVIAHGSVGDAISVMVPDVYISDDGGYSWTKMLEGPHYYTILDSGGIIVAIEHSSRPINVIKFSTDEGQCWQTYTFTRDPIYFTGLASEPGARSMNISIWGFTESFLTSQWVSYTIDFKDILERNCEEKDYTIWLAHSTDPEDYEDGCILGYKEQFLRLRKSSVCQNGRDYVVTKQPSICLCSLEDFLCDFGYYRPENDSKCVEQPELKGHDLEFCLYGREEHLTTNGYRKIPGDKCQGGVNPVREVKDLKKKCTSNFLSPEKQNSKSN

RRPYIL [NT8-13] returned an EC50 of 460 nM.
